# Data: patent publication US20140120095A1 (Boehringer Ingelheim, published 2014)
# B1: DLLBII19F04 (VHH)
# VHH: EVQLVESGGGLVQAEGSLRLSCAASGSTFSTYAMAWYRQAPGKQRELVAGISFDGSTHYAESVKGRFTISRDDAKNTVSLQMNSLKPEDAAVYYCYSVHPSTGFGSWGQGTQVTVSS
# Key:
# recombinant human DLL4 [1] = molecular target: T1, recombinant human DLL4 (human, UniProt Q9NR61 25-522); test: Biacore off-rate, periplasmic extract
# T1 construct: also called rhDLL4; hDLL4
# [2] = molecular target: T2, human DLL4 overexpressed on cells (human, UniProt Q9NR61 27-685); test: competitive FMAT, hNotch1-Fc on CHO-hDLL4
# T2 construct: full length human DLL4 on CHO or HEK293 cells; also called CHO-hDLL4; CHO-hDII4
# recombinant human DLL4 [3] = molecular target: T1, recombinant human DLL4; test: competition AlphaScreen, biot-hDLL4/hNotch1-Fc; partial inhibitor
# recombinant human DLL4 [4] = molecular target: T1, recombinant human DLL4; test: hDLL4 ELISA screen, periplasmic extract
# human DLL1 = molecular target: T3, human DLL1 (human, UniProt O00548 18-545, limits assumed); test: ELISA, coated human DLL1
# T3 construct: also called hDLL1
# T3 sequence (looked up): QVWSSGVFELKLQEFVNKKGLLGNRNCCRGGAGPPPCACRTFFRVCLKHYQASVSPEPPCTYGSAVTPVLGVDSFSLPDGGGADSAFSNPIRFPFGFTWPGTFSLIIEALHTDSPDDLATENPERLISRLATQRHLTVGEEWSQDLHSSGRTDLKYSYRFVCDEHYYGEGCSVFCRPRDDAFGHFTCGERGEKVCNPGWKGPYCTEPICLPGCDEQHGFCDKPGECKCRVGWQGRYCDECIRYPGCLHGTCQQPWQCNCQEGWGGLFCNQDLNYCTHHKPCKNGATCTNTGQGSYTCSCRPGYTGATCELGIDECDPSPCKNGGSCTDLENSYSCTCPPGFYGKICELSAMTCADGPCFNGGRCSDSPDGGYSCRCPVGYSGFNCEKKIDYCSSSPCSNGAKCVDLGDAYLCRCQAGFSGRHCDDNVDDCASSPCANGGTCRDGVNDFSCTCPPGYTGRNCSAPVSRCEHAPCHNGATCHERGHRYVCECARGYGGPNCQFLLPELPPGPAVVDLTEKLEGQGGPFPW
# Experimental: (§1) Absence of binding to homologous ligands human DLL1 and human Jagged-1 is assessed via solid phase binding assay (ELISA). In brief, human DLL1 (Alexis, San Diego, Calif., USA) and human Jagged-1 (Alexis, San Diego, Calif., USA) are coated overnight at 4° C. at 1 μg/mL in a 96-well MaxiSorp plate (Nunc, Wiesbaden, Germany). Wells are blocked with a casein solution (1% in PBS). VHHs are applied as dilution series and binding is detected using a mouse anti-myc (Roche) and an anti-mouse-AP conjugate (Sigma, St. Louis, Mo., USA).
# recombinant human DLL4 [5] = molecular target: T1, recombinant human DLL4; test: binding ELISA, coated rhDLL4
# Experimental: (§2) In order to determine cross-reactivity to mouse DII4 a binding ELISA is performed. […] Wells are blocked with a casein solution (1% in PBS). VHHs are applied as dilution series and binding is detected using a mouse anti-myc (Roche) and an anti-mouse-AP conjugate (Sigma, St Louis, Mo., USA) (FIG. 7 A-H). As reference, binding to human DII4 is measured.
# human Jagged-1 = molecular target: T4, human Jagged-1 (human, UniProt P78504 34-1067, limits assumed); test: ELISA, coated human Jagged-1
# T4 construct: also called hJagged-1; hJAG1
# Experimental: as §1
# recombinant mouse DLL4 = molecular target: T5, recombinant mouse DLL4 (mouse, UniProt Q9JI71 27-532); test: binding ELISA, coated rmDLL4
# T5 construct: extracellular domain; also called rmDLL4; mDLL4
# Experimental: as §2
# T5 sequence (Q9JI71 27-532): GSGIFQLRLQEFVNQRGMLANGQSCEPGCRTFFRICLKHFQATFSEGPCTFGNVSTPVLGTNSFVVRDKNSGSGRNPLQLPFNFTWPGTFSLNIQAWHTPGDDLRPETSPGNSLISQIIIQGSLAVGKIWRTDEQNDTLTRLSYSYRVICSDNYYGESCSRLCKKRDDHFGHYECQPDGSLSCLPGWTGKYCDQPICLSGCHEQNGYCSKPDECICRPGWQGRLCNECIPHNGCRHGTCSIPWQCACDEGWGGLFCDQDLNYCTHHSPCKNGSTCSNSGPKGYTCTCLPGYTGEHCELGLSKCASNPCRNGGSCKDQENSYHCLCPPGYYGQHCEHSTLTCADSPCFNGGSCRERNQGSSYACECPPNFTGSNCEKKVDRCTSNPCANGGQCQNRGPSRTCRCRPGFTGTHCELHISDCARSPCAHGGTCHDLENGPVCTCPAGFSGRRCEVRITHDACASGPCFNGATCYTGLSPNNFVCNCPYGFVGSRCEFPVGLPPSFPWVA
binder,measurement,setting,value
B1,koff,recombinant human DLL4 [1],0.0011 s⁻¹
same,IC50,[2],33 nM
same,IC50,recombinant human DLL4 [3],0.05 nM
same,% inh,recombinant human DLL4 [4],98%
same,binding result,human DLL1,no binding
same,EC50,recombinant human DLL4 [5],0.9 nM
same,binding result,human Jagged-1,no binding
same,EC50,recombinant mouse DLL4,0.8 nM
